Reference: patent US20260265379A1
Each block holds one binder with its values, some of them ahead of it.

Target: BTN3A expressed at the cell surface (human), O00481
Test: cell-based or functional assay

Sequence of BTN3A expressed at the cell surface (human), O00481 (O00481 30-513): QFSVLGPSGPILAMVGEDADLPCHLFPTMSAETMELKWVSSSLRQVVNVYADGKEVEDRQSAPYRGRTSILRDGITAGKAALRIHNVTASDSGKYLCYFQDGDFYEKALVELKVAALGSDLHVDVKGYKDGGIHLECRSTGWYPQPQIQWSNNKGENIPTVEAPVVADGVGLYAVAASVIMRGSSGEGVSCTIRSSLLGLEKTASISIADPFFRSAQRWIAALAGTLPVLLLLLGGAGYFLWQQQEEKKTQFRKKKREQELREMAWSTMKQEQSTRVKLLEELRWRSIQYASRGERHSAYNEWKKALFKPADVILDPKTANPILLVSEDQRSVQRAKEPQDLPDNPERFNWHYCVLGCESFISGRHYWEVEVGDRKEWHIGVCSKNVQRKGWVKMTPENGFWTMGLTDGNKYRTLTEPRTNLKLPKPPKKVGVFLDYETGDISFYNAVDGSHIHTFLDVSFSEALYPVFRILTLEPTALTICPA

Jurkat-Vy9Vo2 TCR MOP activation at 0.5 nM (fold-change to medium): 1.1 | Jurkat-Vy9Vo2 TCR MOP activation at 5 nM (fold-change to medium): 1.7
B1: bsAb018 (bispecific antibody)
heavy: EIVLTQSPATLSLSPGERATLSCRASKGVSTSGYSYLHWYQQKPGQAPRLLIYLASYLESGVPARFSGSGSGTDFTLTISSLEPEDFAVYYCQHSRDLPLTFGGGTKVEIKGGGGSGGGGSGGGGSGGGGSQVQLVQSGVEVKKPGASVKVSCKASGYTFTNYYMYWVRQAPGQGLEWMGGINPSNGGTNFNEKFKNRVTLTTDSSTTTAYMELKSLQFDDTAVYYCARRDYRFDMGFDYWGQGTTVTVSSGGGGSGGGGSGGGGSGGGGSQVQLVQSGAEVKKPGASVKLSCKASGYIFTRYYMYWVKQRPGQGLEWIGEINPNNGGTKFNEKFKNRATLTVDKSISTAYMELSRLRSDDTAVYYCSREDDYDGTPFAMDYWGQGTLVTVSSASTKGPSVFPLAPSSKSTSGGTAALGCLVKDYFPEPVTVSWNSGALTSGVHTFPAVLQSSGLYSLSSVVTVPSSSLGTQTYICNVNHKPSNTKVDKRVEPKSCDKTHTCPPCPAPEFEGGPSVFLFPPKPKDTLMISRTPEVTCVVVDVSHEDPEVKFNWYVDGVEVHNAKTKPREEQYNSTYRVVSVLTVLHQDWLNGKEYKCKVSNKALPASIEKTISKAKGQPREPQVYTLPPSREEMTKNQVSLTCLVKGFYPSDIAVEWESNGQPENNYKTTPPVLDSDGSFFLYSKLTVDKSRWQQGNVFSCSVMHEALHNHYTQKSLSLSPG
light: not shown

Jurkat-Vy9Vo2 TCR MOP activation at 0.5 nM (fold-change to medium): 1.3 | Jurkat-Vy9Vo2 TCR MOP activation at 5 nM (fold-change to medium): 1.4
B2: bsAb022 (bispecific antibody)
heavy: QVQLVQSGVEVKKPGASVKVSCKASGYTFTNYYMYWVRQAPGQGLEWMGGINPSNGGTNFNEKFKNRVTLTTDSSTTTAYMELKSLQFDDTAVYYCARRDYRFDMGFDYWGQGTTVTVSSGGGGSGGGGSGGGGSGGGGSEIVLTQSPATLSLSPGERATLSCRASKGVSTSGYSYLHWYQQKPGQAPRLLIYLASYLESGVPARFSGSGSGTDFTLTISSLEPEDFAVYYCQHSRDLPLTFGGGTKVEIKGGGGSGGGGSGGGGSGGGGSQVQLVQSGAEVKKPGASVKLSCKASGYIFTRYYMYWVKQRPGQGLEWIGEINPNNGGTKFNEKFKNRATLTVDKSISTAYMELSRLRSDDTAVYYCSREDDYDGTPFAMDYWGQGTLVTVSSASTKGPSVFPLAPSSKSTSGGTAALGCLVKDYFPEPVTVSWNSGALTSGVHTFPAVLQSSGLYSLSSVVTVPSSSLGTQTYICNVNHKPSNTKVDKRVEPKSCDKTHTCPPCPAPEFEGGPSVFLFPPKPKDTLMISRTPEVTCVVVDVSHEDPEVKFNWYVDGVEVHNAKTKPREEQYNSTYRVVSVLTVLHQDWLNGKEYKCKVSNKALPASIEKTISKAKGQPREPQVYTLPPSREEMTKNQVSLTCLVKGFYPSDIAVEWESNGQPENNYKTTPPVLDSDGSFFLYSKLTVDKSRWQQGNVFSCSVMHEALHNHYTQKSLSLSPG
light: not shown

Jurkat-Vy9Vo2 TCR MOP activation at 0.5 nM (fold-change to medium): 1 | Jurkat-Vy9Vo2 TCR MOP activation at 5 nM (fold-change to medium): 1.2
B3: bsAb025 (bispecific antibody)
heavy: QVQLVQSGVEVKKPGASVKVSCKASGYTFTNYYMYWVRQAPGQGLEWMGGINPSNGGTNFNEKFKNRVTLTTDSSTTTAYMELKSLQFDDTAVYYCARRDYRFDMGFDYWGQGTTVTVSSASTKGPSVFPLAPSSKSTSGGTAALGCLVKDYFPEPVTVSWNSGALTSGVHTFPAVLQSSGLYSLSSVVTVPSSSLGTQTYICNVNHKPSNTKVDKKVEPKSCDKTHTGGSSGSGSGSTGTSSSGTGTSAGTTGTSASTSGSGSGGGGGSGGGGSAGGEIVLTQSPATLSLSPGERATLSCRASKGVSTSGYSYLHWYQQKPGQAPRLLIYLASYLESGVPARFSGSGSGTDFTLTISSLEPEDFAVYYCQHSRDLPLTFGGGTKVEIKRTVAAPSVFIFPPSDEQLKSGTASVVCLLNNFYPREAKVQWKVDNALQSGNSQESVTEQDSKDSTYSLSSTLTLSKADYEKHKVYACEVTHQGLSSPVTKSFNRGECGGGGSGGGGSGGGGSGGGGSQVQLVQSGAEVKKPGASVKLSCKASGYIFTRYYMYWVKQRPGQGLEWIGEINPNNGGTKFNEKFKNRATLTVDKSISTAYMELSRLRSDDTAVYYCSREDDYDGTPFAMDYWGQGTLVTVSSASTKGPSVFPLAPSSKSTSGGTAALGCLVKDYFPEPVTVSWNSGALTSGVHTFPAVLQSSGLYSLSSVVTVPSSSLGTQTYICNVNHKPSNTKVDKRVEPKSCDKTHTCPPCPAPEFEGGPSVFLFPPKPKDTLMISRTPEVTCVVVDVSHEDPEVKFNWYVDGVEVHNAKTKPREEQYNSTYRVVSVLTVLHQDWLNGKEYKCKVSNKALPASIEKTISKAKGQPREPQVYTLPPSREEMTKNQVSLTCLVKGFYPSDIAVEWESNGQPENNYKTTPPVLDSDGSFFLYSKLTVDKSRWQQGNVFSCSVMHEALHNHYTQKSLSLSPG
light: not shown

Second part, the binder before the results:

B4: ICT01 (antibody, V domains shown)
VH: QVQLVQSGAEVKKPGASVKLSCKASGYIFTRYYMYWVKQRPGQGLEWIGEINPNNGGTKFNEKFKNRATLTVDKSISTAYMELSRLRSDDTAVYYCSREDDYDGTPFAMDYWGQGTLVTVSS
VL: DIQMTQSPSSLSASVGDRVTITCHASQNINVWLSWYQQKPGKAPKLLIYKASNLHTGVPSRFTGSGSGTDFTFTISSLQPEDIATYYCQQGQTYPYTFGQGTKLEIK
Jurkat-Vy9Vo2 TCR MOP activation at 0.5 nM (fold-change to medium): 12.5 | Jurkat-Vy9Vo2 TCR MOP activation at 5 nM (fold-change to medium): 11.7 | dose at which Jurkat-Vγ9Vδ2 TCR MOP activation was evident: 0.05 nM | increase in CD107ab expression on Vγ9Vδ2 T cells co-cultured with SKOV3 cells, 0.1 nM: 1.9 fold

B5: bsAb010 (bispecific antibody)
heavy: QVQLVQSGAEVKKPGASVKLSCKASGYIFTRYYMYWVKQRPGQGLEWIGEINPNNGGTKFNEKFKNRATLTVDKSISTAYMELSRLRSDDTAVYYCSREDDYDGTPFAMDYWGQGTLVTVSSASTKGPSVFPLAPSSKSTSGGTAALGCLVKDYFPEPVTVSWNSGALTSGVHTFPAVLQSSGLYSLSSVVTVPSSSLGTQTYICNVNHKPSNTKVDKRVEPKSCDKTHTCPPCPAPEFEGGPSVFLFPPKPKDTLMISRTPEVTCVVVDVSHEDPEVKFNWYVDGVEVHNAKTKPREEQYNSTYRVVSVLTVLHQDWLNGKEYKCKVSNKALPASIEKTISKAKGQPREPQVYTLPPSREEMTKNQVSLTCLVKGFYPSDIAVEWESNGQPENNYKTTPPVLDSDGSFFLYSKLTVDKSRWQQGNVFSCSVMHEALHNHYTQKSLSLSPG
light: not shown
Jurkat-Vy9Vo2 TCR MOP activation at 0.5 nM (fold-change to medium): 5.3 | Jurkat-Vy9Vo2 TCR MOP activation at 5 nM (fold-change to medium): 4.8

B6: bsAb014 (bispecific antibody)
heavy: B5 heavy
light: not shown
Jurkat-Vy9Vo2 TCR MOP activation at 0.5 nM (fold-change to medium): 6.4 | Jurkat-Vy9Vo2 TCR MOP activation at 5 nM (fold-change to medium): 4.6
